Laboratory results reported in patent US20130288266A1 (ROCHE DIAGNOSTICS OPERATIONS, published 2013).

Assays:
[1] = biological target: T1, mutated HER3(Y>F) in NRG1-beta1-stimulated Hek293 cells, 14 tyrosines of the intracellular domain replaced … (UniProt P21860 20-1342, limits assumed); assay: IHC (Ventana BenchMark XT), FFPE Hek293 cells
T1 construct: whole, on cells; also called mutated version of HER3 lacking the Tyr1289 phosphorylation site
Protocol: The IHC experiments were performed on the BenchMark XT platform from Ventana. For the assay an anti-pHER3 dual binder was used that consisted of ssFab 7.2.32 (binding a non-phospho epitope of the intracellular domain of HER3), ssFab 4.1.15 (binding the pTyr1289 phospho-epitope of the intracellular domain of HER3) and a flexible linker. […] A biotin label within the linker molecule served as a detection tag for the streptavidin-based Ventana iVIEW DAB detection kit.
In order to test the specificity of the anti-pHER3 dual binder molecule an elaborate test system based on formalin-fixed paraffin-embedded (FFPE) Hek293 cells was used. Hek293 cells had been transiently transfected with both HER2 and HER3 expression vectors. In one case an HER3 expression vector was used that encodes an mutated version of HER3, in which 14 tyrosines of the intracellular domain that serve as phosphorylation sites are replaced with phenylalanines (Y975F, Y1054F, Y1132F, Y1159F, Y1197F, Y1199F, Y1222F, Y1224F, Y1260F, Y1262F, Y1276F, Y1289F, Y1307F, Y1328F). Cells were fixed with formalin and embedded in paraffin according to standard protocols. […]

[2] = biological target: T2, wild-type HER3 in unstimulated Hek293 cells (transfected with HER2 and HER3) (UniProt P21860 20-1342, limits assumed); assay: IHC (Ventana BenchMark XT), ssFab on 4xC18 linker, FFPE Hek293 cells
T2 construct: whole, on cells; also called HER3 (unstimulated cells)
T2 sequence (P21860 20-1342 limits assumed): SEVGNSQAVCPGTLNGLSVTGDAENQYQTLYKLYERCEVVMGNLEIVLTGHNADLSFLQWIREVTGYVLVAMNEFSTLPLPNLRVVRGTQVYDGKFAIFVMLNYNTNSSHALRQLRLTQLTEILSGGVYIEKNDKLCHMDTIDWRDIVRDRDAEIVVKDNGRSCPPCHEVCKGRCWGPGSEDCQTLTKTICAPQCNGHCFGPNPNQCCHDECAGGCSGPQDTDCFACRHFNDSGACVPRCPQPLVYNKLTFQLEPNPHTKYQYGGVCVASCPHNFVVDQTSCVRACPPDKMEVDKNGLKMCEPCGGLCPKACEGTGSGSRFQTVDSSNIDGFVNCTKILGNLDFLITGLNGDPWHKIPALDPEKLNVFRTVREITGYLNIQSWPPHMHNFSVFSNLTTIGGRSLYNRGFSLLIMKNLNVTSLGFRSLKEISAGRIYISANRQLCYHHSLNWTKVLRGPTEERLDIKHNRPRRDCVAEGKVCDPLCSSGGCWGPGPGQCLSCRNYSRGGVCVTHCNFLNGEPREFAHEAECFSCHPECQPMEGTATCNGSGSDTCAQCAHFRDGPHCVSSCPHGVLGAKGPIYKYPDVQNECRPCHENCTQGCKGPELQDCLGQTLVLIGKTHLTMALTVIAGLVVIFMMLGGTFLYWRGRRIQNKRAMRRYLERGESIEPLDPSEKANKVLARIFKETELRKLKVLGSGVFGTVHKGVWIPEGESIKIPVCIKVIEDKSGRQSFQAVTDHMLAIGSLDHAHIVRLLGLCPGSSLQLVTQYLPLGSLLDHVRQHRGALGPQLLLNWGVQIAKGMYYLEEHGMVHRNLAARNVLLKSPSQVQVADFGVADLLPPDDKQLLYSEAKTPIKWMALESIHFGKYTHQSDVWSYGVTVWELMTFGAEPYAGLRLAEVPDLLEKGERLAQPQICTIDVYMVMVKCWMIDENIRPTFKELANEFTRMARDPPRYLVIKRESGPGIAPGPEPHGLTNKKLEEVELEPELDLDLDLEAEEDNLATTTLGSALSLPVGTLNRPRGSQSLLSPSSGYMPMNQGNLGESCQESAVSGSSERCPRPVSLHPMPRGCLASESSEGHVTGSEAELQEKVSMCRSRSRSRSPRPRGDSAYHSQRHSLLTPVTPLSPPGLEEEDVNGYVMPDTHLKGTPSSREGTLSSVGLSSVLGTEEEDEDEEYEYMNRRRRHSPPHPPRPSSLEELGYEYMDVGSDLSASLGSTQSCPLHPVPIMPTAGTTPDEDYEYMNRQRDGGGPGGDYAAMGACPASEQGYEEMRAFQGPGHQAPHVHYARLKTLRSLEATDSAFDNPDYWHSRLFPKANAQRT
Description: (§1) Hek293 cells had been transiently transfected with both HER2 and HER3 expression vectors. In one case an HER3 expression vector was used that encodes an mutated version of HER3, in which 14 tyrosines of the intracellular domain that serve as phosphorylation sites are replaced with phenylalanines (Y975F, Y1054F, Y1132F, Y1159F, Y1197F, Y1199F, Y1222F, Y1224F, Y1260F, Y1262F, Y1276F, Y1289F, Y1307F, Y1328F). Cells were fixed with formalin and embedded in paraffin according to standard protocols.
(§2) 1 μg/ml per ssFab fragment of only ssFab 7.2.32 or only ssFab 4.1.15, respectively, and an equimolar amount of 4×C18 linker, as well as a mixture of both ssFab′ fragments of ssFab 7.2.32 and ssFab 4.1.15 (both at 1 μg/ml) and an equimolar amount of 4×C18 linker, respectively, were used for detection. A biotin label within the linker molecule served as a detection tag for the streptavidin-based Ventana iVIEW DAB detection kit.

[3] = biological target: T1, mutated HER3(Y>F) in …; assay: as above
Description: as §1, §2

T1 sequence (P21860 other isoform, or with tags, fused parts or gaps limits assumed, change not shown): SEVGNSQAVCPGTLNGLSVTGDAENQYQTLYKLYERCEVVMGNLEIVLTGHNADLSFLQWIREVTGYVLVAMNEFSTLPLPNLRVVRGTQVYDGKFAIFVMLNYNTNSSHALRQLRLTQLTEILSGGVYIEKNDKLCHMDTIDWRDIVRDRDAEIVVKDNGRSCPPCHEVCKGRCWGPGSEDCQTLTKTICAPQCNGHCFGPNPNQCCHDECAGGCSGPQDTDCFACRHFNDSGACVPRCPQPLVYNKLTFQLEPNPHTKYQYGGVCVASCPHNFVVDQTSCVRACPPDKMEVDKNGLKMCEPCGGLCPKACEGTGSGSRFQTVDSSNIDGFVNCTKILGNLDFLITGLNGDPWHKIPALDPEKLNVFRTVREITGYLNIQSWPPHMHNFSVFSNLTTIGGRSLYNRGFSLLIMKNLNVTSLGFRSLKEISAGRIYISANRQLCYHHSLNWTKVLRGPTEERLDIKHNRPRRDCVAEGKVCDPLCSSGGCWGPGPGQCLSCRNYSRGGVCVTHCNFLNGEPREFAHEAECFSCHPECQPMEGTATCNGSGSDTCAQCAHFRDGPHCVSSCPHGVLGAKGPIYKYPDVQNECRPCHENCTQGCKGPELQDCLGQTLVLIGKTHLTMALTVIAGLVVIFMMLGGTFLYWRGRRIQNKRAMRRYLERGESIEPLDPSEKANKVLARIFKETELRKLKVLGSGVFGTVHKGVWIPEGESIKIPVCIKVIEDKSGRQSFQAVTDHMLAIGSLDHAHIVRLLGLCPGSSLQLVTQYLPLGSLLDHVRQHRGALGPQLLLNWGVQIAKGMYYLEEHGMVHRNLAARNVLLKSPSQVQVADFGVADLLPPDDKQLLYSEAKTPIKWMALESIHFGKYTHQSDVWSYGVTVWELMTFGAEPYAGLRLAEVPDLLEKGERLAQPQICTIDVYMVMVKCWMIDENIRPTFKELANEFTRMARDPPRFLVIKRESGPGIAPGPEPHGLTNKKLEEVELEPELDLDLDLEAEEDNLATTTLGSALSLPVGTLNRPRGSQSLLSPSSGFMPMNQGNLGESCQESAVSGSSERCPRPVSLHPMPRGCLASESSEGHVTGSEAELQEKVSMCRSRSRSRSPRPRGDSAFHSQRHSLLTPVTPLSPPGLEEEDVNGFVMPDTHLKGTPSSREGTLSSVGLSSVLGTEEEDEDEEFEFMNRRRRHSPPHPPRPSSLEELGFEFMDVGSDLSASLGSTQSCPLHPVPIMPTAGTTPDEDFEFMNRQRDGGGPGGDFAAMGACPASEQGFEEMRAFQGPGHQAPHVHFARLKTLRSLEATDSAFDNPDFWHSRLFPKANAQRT

Row | Binder | binding result [1] | binding result [2] | binding result [3]
1 | anti-pHER3 dual binder consisting of ssFab 7.2.32, ssFab 4.1.15 and a flexible linker with a 4xC18 spacer (linker 12 of example 2.4) (bispecific antibody, V domains shown, Two recombinant Fab-oligo conjugates hybridised on biotinylated linker 12 ((Spacer C18)2-(Biotin-dT)-(Spacer C18)2)) VH 1: EFEVQLQESGGGLVQPKGSLQLSCAASGFTFNTYAMHWVRQAPGKGLEWVARIRTESSDYATDYADSVKDRFIISRDDSQNMLYLQMNNLKSEDTAIYYCVRSSGFDYWGQGTTLTVSSS VL 1: DIQMTQSPSLPVSLGDQASISCRSSQSLVHDNGNTYLHWFLQKPGQSPKLLIYKVSNRFSGVPDRFGGSGSGTDFTLKISGVEAEDLGVYFCSQGTHVPTFGGGTKLEIK VH 2: EFEVQLQESGPELVKPGTSVTISCKTSGYAFSNSWMSWVKQRPGQGLEWIGRIFPGNGDTDYNGNFRAKATLTADKSSSTAFMQLSRLTSVDSAVYFCARSRGLRQGAGFAYWGQGTLVTVSA VL 2: not shown | no binding (tested: 1 µg/ml per ssFab) |  | 
2 | ssFab 4.1.15 (recombinant Fab 4.1.15 conjugated to the 17 mer oligo by sortase) (Fab, V domains shown, also called Fab-Oligo 4.1.15) VH: EVQLQESGPELVKPGTSVTISCKTSGYAFSNSWMSWVKQRPGQGLEWIGRIFPGNGDTDYNGNFRAKATLTADKSSSTAFMQLSRLTSVDSAVYFCARSRGLRQGAGFAYWGQGTLVTVSA VL: not shown |  | no binding (tested: 1 µg/ml) | no binding (tested: 1 µg/ml)
